Experimental data as given in publication PMC6468676, “The Protein Tyrosine Phosphatase H1 PTPH1 Supports Proliferation of Keratinocytes and is a Target of the Human Papillomavirus Type 8 E6 Oncogene” (Cells, 2019).

Target: T1, FLAG-tagged HPV8E6 (E6 oncoprotein of human papillomavirus type 8), wild type (human papillomavirus type 8, UniProt P06428 1-155)
T1 sequence: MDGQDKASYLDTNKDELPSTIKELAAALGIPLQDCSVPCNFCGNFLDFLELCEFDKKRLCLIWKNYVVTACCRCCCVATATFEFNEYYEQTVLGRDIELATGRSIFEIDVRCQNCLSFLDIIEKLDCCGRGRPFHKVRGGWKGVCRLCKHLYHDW
Assay: cell-based or functional assay

B1: Myc-tagged protein tyrosine phosphatase H1 (PTPH1), full length (enzyme, UniProt P26045 1-913, looked up)
chain: MTSRLRALGGRINNIRTSELPKEKTRSEVICSIHFLDGVVQTFKVTKQDTGQVLLDMVHNHLGVTEKEYFGLQHDDDSVDSPRWLEASKAIRKQLKGGFPCTLHFRVRFFIPDPNTLQQEQTRHLYFLQLKMDICEGRLTCPLNSAVVLASYAVQSHFGDYNSSIHHPGYLSDSHFIPDQNEDFLTKVESLHEQHSGLKQSEAESCYINIARTLDFYGVELHSGRDLHNLDLMIGIASAGVAVYRKYICTSFYPWVNILKISFKRKKFFIHQRQKQAESREHIVAFNMLNYRSCKNLWKSCVEHHTFFQAKKLLPQEKNVLSQYWTMGSRNTKKSVNNQYCKKVIGGMVWNPAMRRSLSVEHLETKSLPSRSPPITPNWRSPRLRHEIRKPRHSSADNLANEMTYITETEDVFYTYKGSLAPQDSDSEVSQNRSPHQESLSENNPAQSYLTQKSSSSVSPSSNAPGSCSPDGVDQQLLDDFHRVTKGGSTEDASQYYCDKNDNGDSYLVLIRITPDEDGKFGFNLKGGVDQKMPLVVSRINPESPADTCIPKLNEGDQIVLINGRDISEHTHDQVVMFIKASRESHSRELALVIRRRAVRSFADFKSEDELNQLFPEAIFPMCPEGGDTLEGSMAQLKKGLESGTVLIQFEQLYRKKPGLAITFAKLPQNLDKNRYKDVLPYDTTRVLLQGNEDYINASYVNMEIPAANLVNKYIATQGPLPHTCAQFWQVVWDQKLSLIVMLTTLTERGRTKCHQYWPDPPDVMNHGGFHIQCQSEDCTIAYVSREMLVTNTQTGEEHTVTHLQYVAWPDHGVPDDSSDFLEFVNYVRSLRVDSEPVLVHCSAGIGRTGVLVTMETAMCLTERNLPIYPLDIVRKMRDQRAMMVQTSSQYKFVCEAILRVYEEGLVQMLDPS
- Myc-PTPH1 phosphatase activity (Malachite Green PTP assay on precipitated Myc-PTPH1, two phospho-tyrosine peptides) upon co-expression of HPV8E6 compared to the empty FLAG control vector: 2.5 fold
